# Reference: article PMC4356968, “Characterization of the MCM homohexamer from the thermoacidophilic euryarchaeon Picrophilus torridus” (Scientific Reports, 2015)
# Assays:
# PtMCM = biological target: T1, PtMCM (Picrophilus oshimae, UniProt A0A8G2FX57, K337A); test: ATP hydrolysis, gamma-32P ATP tracer, TLC; format: biochemical; conditions: pH 6.0, 55 °C, 10 or 100 uM ATP, no DNA, 800 nM protein, 60 min; Walker A mutant
# T1 construct: gene SAMN02745355_1050; full length, N-terminal 6xHis and C-terminal Strep-tag kept; E. coli BL21 Codon Plus; tagged monomer 81 kDa (untagged ~76 kDa); homohexamer
# [1] = biological target: His-PtMCM-Strep (Picrophilus torridus MCM, recombinant) (Picrophilus torridus)
# [2] = biological target: His-PtMCM-Strep (Picrophilus torridus MCM, recombinant) (Picrophilus torridus); remark: listed apart in the source
# [3] = biological target: His-PtMCM-Strep (Picrophilus torridus MCM, recombinant) (Picrophilus torridus); remark: listed apart in the source
# [4] = biological target: His-PtGINS (Picrophilus torridus GINS, recombinant) (Picrophilus torridus); test: SEC; Superdex 200 10/300 GL calibrated with protein standards, 50 mM potassium phosphate pH 7.4, 150 mM NaCl; molecular weight from retention volume; PtMCM 400 ug, profile unchanged over 1.5 to 5 uM protein
# [5] = biological target: His-PtMCM-Strep (Picrophilus torridus MCM, recombinant) (Picrophilus torridus); test: as above
# T1 sequence (A0A8G2FX57 entry or part of it K337A): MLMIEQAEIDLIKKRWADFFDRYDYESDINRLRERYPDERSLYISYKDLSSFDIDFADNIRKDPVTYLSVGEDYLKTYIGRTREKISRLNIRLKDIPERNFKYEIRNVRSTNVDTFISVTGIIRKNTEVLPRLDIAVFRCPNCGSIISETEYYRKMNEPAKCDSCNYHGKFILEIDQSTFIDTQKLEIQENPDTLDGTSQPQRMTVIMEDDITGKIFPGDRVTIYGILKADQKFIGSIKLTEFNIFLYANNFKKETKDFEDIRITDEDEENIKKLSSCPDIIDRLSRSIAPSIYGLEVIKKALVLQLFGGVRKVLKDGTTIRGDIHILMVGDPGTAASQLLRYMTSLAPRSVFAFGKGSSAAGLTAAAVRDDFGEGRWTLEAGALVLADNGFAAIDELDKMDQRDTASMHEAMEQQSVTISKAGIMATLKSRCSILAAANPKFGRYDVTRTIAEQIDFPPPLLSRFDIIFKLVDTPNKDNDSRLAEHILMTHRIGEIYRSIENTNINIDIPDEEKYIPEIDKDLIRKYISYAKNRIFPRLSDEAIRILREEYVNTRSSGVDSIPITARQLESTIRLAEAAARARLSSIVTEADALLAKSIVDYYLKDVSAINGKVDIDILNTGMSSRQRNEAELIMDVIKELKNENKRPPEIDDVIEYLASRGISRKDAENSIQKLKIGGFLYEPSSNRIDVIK
compound,measurement,setting,value
Nc1ncnc2c1ncn2[C@@H]1O[C@H](COP(=O)(O)OP(=O)(O)OP(=O)(O)O)[C@@H](O)[C@H]1O [ATP],"ATP hydrolysis, gamma-32P ATP tracer, TLC",PtMCM,ATPase activity was drastically diminished in case of the mutant PtMCM-K337A
"His-PtGINS (Picrophilus torridus GINS, recombinant) (natural protein)","MCM ATP hydrolysis with 100 uM ATP, 500 nM PtMCM and 3000 nM PtGINS, pH 3-7, with or without DNA, 60 min; fold increase with GINS at lower pH (no effect at pH 5-7)",[1],2 fold
same,"ATP hydrolysed during the helicase reaction at pH 4, 5 mM ATP, 500 nM PtMCM and 3000 nM PtGINS, 60 min; fold stimulation by GINS",[2],> 50 fold
same,"ATP hydrolysed during the helicase reaction at pH 6, 3-5 mM ATP, 500 nM PtMCM and 3000 nM PtGINS, 60 min; fold stimulation by GINS",[3],2 fold
same,stoichiometry N,[4],4
"His-PtMCM-Strep (Picrophilus torridus MCM, recombinant) (enzyme)",stoichiometry N,[5],6
